Blank lines part the entries; values can stand above or below the binder they belong to. Starred links: 1 amine or outer side, 2 acyl side, 3 side chain; linkers in the order of their positions; H or OH if unused. Non-standard residues stand in square brackets, D forms with d. No end group written: not given here. *: point of attachment. C20 diacid = O=C(O)CCCCCCCCCCCCCCCCCCC(=O)*; d(γGlu) = O=C(O)[C@@H](CCC(=O)[*:2])N[*:1]; C18 diacid = O=C(O)CCCCCCCCCCCCCCCCC(=O)*; γGlu = O=C(O)[C@H](CCC(=O)[*:2])N[*:1]; Palmitoyl = CCCCCCCCCCCCCCCC(=O)*; 3Pal = N[C@@H](Cc1cccnc1)C(=O)O; Nle = CCCC[C@H](N)C(=O)O; AEEA = NCCOCCOCC(=O)O; βAla = NCCC(=O)O
Molecular target: human GRP receptor (human, UniProt P30550 1-384)
Sequence (P30550 whole entry): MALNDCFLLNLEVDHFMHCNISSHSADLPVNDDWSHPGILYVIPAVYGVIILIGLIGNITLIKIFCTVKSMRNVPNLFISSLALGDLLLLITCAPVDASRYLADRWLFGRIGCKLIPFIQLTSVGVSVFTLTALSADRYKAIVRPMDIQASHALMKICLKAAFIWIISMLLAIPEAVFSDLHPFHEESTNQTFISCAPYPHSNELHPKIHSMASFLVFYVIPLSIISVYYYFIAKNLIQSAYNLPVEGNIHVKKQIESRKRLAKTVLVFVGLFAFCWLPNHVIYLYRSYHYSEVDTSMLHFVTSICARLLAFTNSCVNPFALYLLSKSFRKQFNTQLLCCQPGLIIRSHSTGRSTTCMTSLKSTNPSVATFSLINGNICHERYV
Assay: cell-based or functional assay

- hIP1 GRPR EC50: 2.87 nM
B1: Peptide 153 (peptide)
peptide: {C20 diacid}-[γGlu]GRHWAV[dA]HL[Nle]-NH2
SMILES: CCCC[C@H](NC(=O)[C@H](CC(C)C)NC(=O)[C@H](Cc1c[nH]cn1)NC(=O)[C@@H](C)NC(=O)[C@@H](NC(=O)[C@H](C)NC(=O)[C@H](Cc1c[nH]c2ccccc12)NC(=O)[C@H](Cc1c[nH]cn1)NC(=O)[C@H](CCCNC(=N)N)NC(=O)CNC(=O)CC[C@H](NC(=O)CCCCCCCCCCCCCCCCCCC(=O)O)C(=O)O)C(C)C)C(N)=O

- hIP1 GRPR EC50: 2.92 nM
B2: Peptide 151 (peptide)
peptide: {C20 diacid}-[γGlu][AEEA][AEEA]GQHWAV[dA]HL[Nle]-NH2
SMILES: CCCC[C@H](NC(=O)[C@H](CC(C)C)NC(=O)[C@H](Cc1c[nH]cn1)NC(=O)[C@@H](C)NC(=O)[C@@H](NC(=O)[C@H](C)NC(=O)[C@H](Cc1c[nH]c2ccccc12)NC(=O)[C@H](Cc1c[nH]cn1)NC(=O)[C@H](CCC(N)=O)NC(=O)CNC(=O)COCCOCCNC(=O)COCCOCCNC(=O)CC[C@H](NC(=O)CCCCCCCCCCCCCCCCCCC(=O)O)C(=O)O)C(C)C)C(N)=O

- hIP1 GRPR EC50: 7.09 nM
B3: Peptide 154 (peptide)
peptide: {C20 diacid}-[γGlu]RNHWAV[dA]HL[Nle]-NH2
SMILES: CCCC[C@H](NC(=O)[C@H](CC(C)C)NC(=O)[C@H](Cc1c[nH]cn1)NC(=O)[C@@H](C)NC(=O)[C@@H](NC(=O)[C@H](C)NC(=O)[C@H](Cc1c[nH]c2ccccc12)NC(=O)[C@H](Cc1c[nH]cn1)NC(=O)[C@H](CC(N)=O)NC(=O)[C@H](CCCNC(=N)N)NC(=O)CC[C@H](NC(=O)CCCCCCCCCCCCCCCCCCC(=O)O)C(=O)O)C(C)C)C(N)=O

- hIP1 GRPR EC50: 161 nM
B4: Peptide 157 (peptide)
peptide: {C18 diacid}-[γGlu][AEEA][AEEA]RRHWAV[dA]HL[Nle]

- hIP1 GRPR EC50: 1.68 nM
B5: Peptide 158 (peptide)
peptide: {C20 diacid}-[γGlu]RRHWAV[dA]HL[Nle]-NH2
SMILES: CCCC[C@H](NC(=O)[C@H](CC(C)C)NC(=O)[C@H](Cc1c[nH]cn1)NC(=O)[C@@H](C)NC(=O)[C@@H](NC(=O)[C@H](C)NC(=O)[C@H](Cc1c[nH]c2ccccc12)NC(=O)[C@H](Cc1c[nH]cn1)NC(=O)[C@H](CCCNC(=N)N)NC(=O)[C@H](CCCNC(=N)N)NC(=O)CC[C@H](NC(=O)CCCCCCCCCCCCCCCCCCC(=O)O)C(=O)O)C(C)C)C(N)=O

- hIP1 GRPR EC50: 358 nM
B6: Peptide 156 (peptide)
peptide: {C18 diacid}-[γGlu][AEEA][AEEA]RNHWAV[dA]HL[Nle]

- hIP1 GRPR EC50: 132 nM
B7: Peptide 155 (peptide)
peptide: {C20 diacid}-[γGlu]RNHWAV[dA]HL[Nle]

- hIP1 GRPR EC50: 3.9 nM
B8: Peptide 152 (peptide)
peptide: {C18 diacid}-[γGlu][AEEA][AEEA]QHWAV[βAla]HL[Nle]-NH2
SMILES: CCCC[C@H](NC(=O)[C@H](CC(C)C)NC(=O)[C@H](Cc1c[nH]cn1)NC(=O)CCNC(=O)[C@@H](NC(=O)[C@H](C)NC(=O)[C@H](Cc1c[nH]c2ccccc12)NC(=O)[C@H](Cc1c[nH]cn1)NC(=O)[C@H](CCC(N)=O)NC(=O)COCCOCCNC(=O)COCCOCCNC(=O)CC[C@H](NC(=O)CCCCCCCCCCCCCCCCC(=O)O)C(=O)O)C(C)C)C(N)=O

- hIP1 GRPR EC50: 1.8 nM
B9: Peptide 12 (peptide)
peptide: Palmitoyl-[d(γGlu)][AEEA][AEEA]GN[3Pal]WAV[dA]HL[Nle]-NH2
SMILES: CCCCCCCCCCCCCCCC(=O)N[C@H](CCC(=O)NCCOCCOCC(=O)NCCOCCOCC(=O)NCC(=O)N[C@@H](CC(N)=O)C(=O)N[C@@H](Cc1cccnc1)C(=O)N[C@@H](Cc1c[nH]c2ccccc12)C(=O)N[C@@H](C)C(=O)N[C@H](C(=O)N[C@H](C)C(=O)N[C@@H](Cc1c[nH]cn1)C(=O)N[C@@H](CC(C)C)C(=O)N[C@@H](CCCC)C(N)=O)C(C)C)C(=O)O

From patent publication US20260176319A1 (KALLYOPE, published 2026)
